According to PMC2121028:

Molecular target: SNF1/GAL4(1-147)
Experiment: two-hybrid
Conditions: scale: units

SNF4/GAL4(768-881) (natural protein), sequence (P12904 whole entry, the tested form may be a part): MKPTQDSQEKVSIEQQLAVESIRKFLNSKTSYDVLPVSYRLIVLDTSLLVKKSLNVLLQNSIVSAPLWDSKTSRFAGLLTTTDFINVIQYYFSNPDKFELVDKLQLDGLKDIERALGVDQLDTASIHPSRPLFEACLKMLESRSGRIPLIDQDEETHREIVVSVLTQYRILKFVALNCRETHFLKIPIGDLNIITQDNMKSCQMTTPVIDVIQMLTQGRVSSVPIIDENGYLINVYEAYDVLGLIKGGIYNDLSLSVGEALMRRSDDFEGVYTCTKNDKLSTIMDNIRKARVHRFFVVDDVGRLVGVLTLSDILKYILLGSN
SNF1/GAL4(1-147), sequence (P06782 whole entry, the tested form may be a part): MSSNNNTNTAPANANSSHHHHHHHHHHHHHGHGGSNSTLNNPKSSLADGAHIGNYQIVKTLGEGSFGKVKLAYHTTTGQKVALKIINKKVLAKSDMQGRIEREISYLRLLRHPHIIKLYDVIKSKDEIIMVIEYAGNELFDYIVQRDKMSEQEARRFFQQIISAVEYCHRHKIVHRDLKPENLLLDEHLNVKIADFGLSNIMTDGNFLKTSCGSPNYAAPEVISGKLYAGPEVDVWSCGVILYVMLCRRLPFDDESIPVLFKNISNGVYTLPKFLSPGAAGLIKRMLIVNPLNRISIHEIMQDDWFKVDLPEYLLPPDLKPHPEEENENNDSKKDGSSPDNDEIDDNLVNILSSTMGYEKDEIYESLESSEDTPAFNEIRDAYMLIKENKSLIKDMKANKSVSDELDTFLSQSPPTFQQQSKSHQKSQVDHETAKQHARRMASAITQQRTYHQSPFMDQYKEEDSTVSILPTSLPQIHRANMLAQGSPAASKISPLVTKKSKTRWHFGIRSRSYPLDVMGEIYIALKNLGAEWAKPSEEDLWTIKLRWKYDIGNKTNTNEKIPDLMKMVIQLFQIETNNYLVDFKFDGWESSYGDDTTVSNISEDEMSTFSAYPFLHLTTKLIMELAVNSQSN

beta-galactosidase activity: 500
Substance: SNF4/GAL4(768-881) (natural protein)
